Values belong to the binder of their own block, whether it stands above or below them.
Experiments:
Experiment in all cases: cell-based or functional assay
ADAMTS4 = biological target: T1, ADAMTS4 (human, UniProt O75173 213-685, limits assumed)
T1 sequence (looked up): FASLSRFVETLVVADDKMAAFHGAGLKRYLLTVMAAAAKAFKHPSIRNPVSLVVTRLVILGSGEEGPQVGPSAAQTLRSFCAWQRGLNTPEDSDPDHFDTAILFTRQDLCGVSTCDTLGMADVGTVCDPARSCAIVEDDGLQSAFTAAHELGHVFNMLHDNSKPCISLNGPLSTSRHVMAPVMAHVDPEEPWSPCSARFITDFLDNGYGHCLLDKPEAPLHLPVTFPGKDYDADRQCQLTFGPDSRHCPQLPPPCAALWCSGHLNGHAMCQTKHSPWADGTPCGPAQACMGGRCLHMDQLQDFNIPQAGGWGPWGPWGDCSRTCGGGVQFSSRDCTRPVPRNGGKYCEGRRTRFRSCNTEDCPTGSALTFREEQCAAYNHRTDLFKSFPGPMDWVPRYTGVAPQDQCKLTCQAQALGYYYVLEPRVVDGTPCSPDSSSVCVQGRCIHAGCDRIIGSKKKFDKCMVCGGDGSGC

ADAMTS5 = biological target: T2, ADAMTS5 (human, UniProt Q9UNA0 262-622, limits assumed)
T2 sequence (looked up): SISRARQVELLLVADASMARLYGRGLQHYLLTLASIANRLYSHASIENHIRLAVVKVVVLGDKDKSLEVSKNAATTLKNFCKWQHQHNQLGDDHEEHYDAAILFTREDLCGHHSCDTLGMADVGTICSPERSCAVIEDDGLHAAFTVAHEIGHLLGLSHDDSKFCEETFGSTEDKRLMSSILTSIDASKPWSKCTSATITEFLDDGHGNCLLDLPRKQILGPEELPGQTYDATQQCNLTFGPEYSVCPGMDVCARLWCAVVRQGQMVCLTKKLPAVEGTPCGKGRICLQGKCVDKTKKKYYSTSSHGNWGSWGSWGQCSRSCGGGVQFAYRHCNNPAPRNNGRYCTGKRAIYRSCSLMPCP

MMP13 = MMP13 (human, UniProt P45452 104-471, limits assumed)

Protease Inhibition (% of WT) (ADAMTS4): 108 % of WT
Protease Inhibition (% of WT) (ADAMTS5): 163 % of WT
Protease Inhibition (% of WT) (MMP13): 78 % of WT
B1: Variant A2M, bait region SEQ ID NO 115 (other)
chain: SVSGKPQYMVLVPSLLHTETTEKGCVLLSYLNETVTVSASLESVRGNRSLFTDLEAENDVLHCVAFAVPKSSSNEEVMFLTVQVKGPTQEFKKRTTVMVKNEDSLVFVQTDKSIYKPGQTVKFRVVSMDENFHPLNELIPLVYIQDPKGNRIAQWQSFQLEGGLKQFSFPLSSEPFQGSYKVVVQKKSGGRTEHPFTVEEFVLPKFEVQVTVPKIITILEEEMNVSVCGLYTYGKPVPGHVTVSICRKYSDASDCHGEDSQAFCEKFSGQLNSHGCFYQQVKTKVFQLKRKEYEMKLHTEAQIQEEGTVVELTGRQSSEITRTITKLSFVKVDSHFRQGIPFFGQVRLVDGKGVPIPNKVIFIRGNEANYYSNATTDEHGLVQFSINTTNVMGTSLTVRVNYKDRSPCYGYQWVSEEHEEAHHTAYLVFSPSKSFVHLEPMSHELPCGHTQTVQAHYILNGGTLLGLKKLSFYYLIMAKGGIVRTGTHGLLVKQEDMKGHFSISIPVKSDIAPVARLLIYAVLPTGDVIGDSAKYDVENCLANKVDLSFSPSQSLPASHAHLRVTAAPQSVCALRAVDQSVLLMKPDAELSASSVYNLLPEKDLTGFPGPLNDQDDEDCINRHNVYINGITYTPVSSTNEKDMYSFLEDMGLKAFTNSKIRKPKMCPQLEEEEGLGSKEEEGLGSPKEEEGLGSKEEEGLGSPKEEEGLGSKLRKYFPETWIWDLVVVNSAGVAEVGVTVPDTITEWKAGAFCLSEDAGLGISSTASLRAFQPFFVELTMPYSVIRGEAFTLKATVLNYLPKCIRVSVQLEASPAFLAVPVEKEQAPHCICANGRQTVSWAVTPKSLGNVNFTVSAEALESQELCGTEVPSVPEHGRKDTVIKPLLVEPEGLEKETTFNSLLCPSGGEVSEELSLKLPPNVVEESARASVSVLGDILGSAMQNTQNLLQMPYGCGEQNMVLFAPNIYVLDYLNETQQLTPEIKSKAIGYLNTGYQRQLNYKHYDGSYSTFGERYGRNQGNTWLTAFVLKTFAQARAYIFIDEAHITQALIWLSQRQKDNGCFRSSGSLLNNAIKGGVEDEVTLSAYITIALLEIPLTVTHPVVRNALFCLESAWKTAQEGDHGSHVYTKALLAYAFALAGNQDKRKEVLKSLNEEAVKKDNSVHWERPQKPKAPVGHFYEPQAPSAEVEMTSYVLLAYLTAQPAPTSEDLTSATNIVKWITKQQNAQGGFSSTQDTVVALHALSKYGAATFTRTGKAAQVTIQSSGTFSSKFQVDNNNRLLLQQVSLPELPGEYSMKVTGEGCVYLQTSLKYNILPEKEEFPFALGVQTLPQTCDEPKAHTSFQISLSVSYTGSRSASNMAIVDVKMVSGFIPLKPTVKMLERSNHVSRTEVSSNHVLIYLDKVSNQTLSLFFTVLQDVPVRDLKPAIVKVYDYYETDEFAIAEYNAPCSKDLGNADYKDDDDKGASHHHHHH

Protease Inhibition (% of WT) (ADAMTS4): 107 % of WT
Protease Inhibition (% of WT) (ADAMTS5): 92 % of WT
Protease Inhibition (% of WT) (MMP13): 116 % of WT
B2: Variant A2M, bait region SEQ ID NO 116 (other)
chain: SVSGKPQYMVLVPSLLHTETTEKGCVLLSYLNETVTVSASLESVRGNRSLFTDLEAENDVLHCVAFAVPKSSSNEEVMFLTVQVKGPTQEFKKRTTVMVKNEDSLVFVQTDKSIYKPGQTVKFRVVSMDENFHPLNELIPLVYIQDPKGNRIAQWQSFQLEGGLKQFSFPLSSEPFQGSYKVVVQKKSGGRTEHPFTVEEFVLPKFEVQVTVPKIITILEEEMNVSVCGLYTYGKPVPGHVTVSICRKYSDASDCHGEDSQAFCEKFSGQLNSHGCFYQQVKTKVFQLKRKEYEMKLHTEAQIQEEGTVVELTGRQSSEITRTITKLSFVKVDSHFRQGIPFFGQVRLVDGKGVPIPNKVIFIRGNEANYYSNATTDEHGLVQFSINTTNVMGTSLTVRVNYKDRSPCYGYQWVSEEHEEAHHTAYLVFSPSKSFVHLEPMSHELPCGHTQTVQAHYILNGGTLLGLKKLSFYYLIMAKGGIVRTGTHGLLVKQEDMKGHFSISIPVKSDIAPVARLLIYAVLPTGDVIGDSAKYDVENCLANKVDLSFSPSQSLPASHAHLRVTAAPQSVCALRAVDQSVLLMKPDAELSASSVYNLLPEKDLTGFPGPLNDQDDEDCINRHNVYINGITYTPVSSTNEKDMYSFLEDMGLKAFTNSKIRKPKMCPQLEELEGRGSKEEEGLGSIPENFFGVFYESDVMGRGHARLVHVEEPHTKLRKYFPETWIWDLVVVNSAGVAEVGVTVPDTITEWKAGAFCLSEDAGLGISSTASLRAFQPFFVELTMPYSVIRGEAFTLKATVLNYLPKCIRVSVQLEASPAFLAVPVEKEQAPHCICANGRQTVSWAVTPKSLGNVNFTVSAEALESQELCGTEVPSVPEHGRKDTVIKPLLVEPEGLEKETTFNSLLCPSGGEVSEELSLKLPPNVVEESARASVSVLGDILGSAMQNTQNLLQMPYGCGEQNMVLFAPNIYVLDYLNETQQLTPEIKSKAIGYLNTGYQRQLNYKHYDGSYSTFGERYGRNQGNTWLTAFVLKTFAQARAYIFIDEAHITQALIWLSQRQKDNGCFRSSGSLLNNAIKGGVEDEVTLSAYITIALLEIPLTVTHPVVRNALFCLESAWKTAQEGDHGSHVYTKALLAYAFALAGNQDKRKEVLKSLNEEAVKKDNSVHWERPQKPKAPVGHFYEPQAPSAEVEMTSYVLLAYLTAQPAPTSEDLTSATNIVKWITKQQNAQGGFSSTQDTVVALHALSKYGAATFTRTGKAAQVTIQSSGTFSSKFQVDNNNRLLLQQVSLPELPGEYSMKVTGEGCVYLQTSLKYNILPEKEEFPFALGVQTLPQTCDEPKAHTSFQISLSVSYTGSRSASNMAIVDVKMVSGFIPLKPTVKMLERSNHVSRTEVSSNHVLIYLDKVSNQTLSLFFTVLQDVPVRDLKPAIVKVYDYYETDEFAIAEYNAPCSKDLGNADYKDDDDKGASHHHHHH

Protease Inhibition (% of WT) (ADAMTS4): 118 % of WT
Protease Inhibition (% of WT) (ADAMTS5): 237 % of WT
Protease Inhibition (% of WT) (MMP13): 75 % of WT
B3: Variant A2M, bait region SEQ ID NO 114 (other)
chain: SVSGKPQYMVLVPSLLHTETTEKGCVLLSYLNETVTVSASLESVRGNRSLFTDLEAENDVLHCVAFAVPKSSSNEEVMFLTVQVKGPTQEFKKRTTVMVKNEDSLVFVQTDKSIYKPGQTVKFRVVSMDENFHPLNELIPLVYIQDPKGNRIAQWQSFQLEGGLKQFSFPLSSEPFQGSYKVVVQKKSGGRTEHPFTVEEFVLPKFEVQVTVPKIITILEEEMNVSVCGLYTYGKPVPGHVTVSICRKYSDASDCHGEDSQAFCEKFSGQLNSHGCFYQQVKTKVFQLKRKEYEMKLHTEAQIQEEGTVVELTGRQSSEITRTITKLSFVKVDSHFRQGIPFFGQVRLVDGKGVPIPNKVIFIRGNEANYYSNATTDEHGLVQFSINTTNVMGTSLTVRVNYKDRSPCYGYQWVSEEHEEAHHTAYLVFSPSKSFVHLEPMSHELPCGHTQTVQAHYILNGGTLLGLKKLSFYYLIMAKGGIVRTGTHGLLVKQEDMKGHFSISIPVKSDIAPVARLLIYAVLPTGDVIGDSAKYDVENCLANKVDLSFSPSQSLPASHAHLRVTAAPQSVCALRAVDQSVLLMKPDAELSASSVYNLLPEKDLTGFPGPLNDQDDEDCINRHNVYINGITYTPVSSTNEKDMYSFLEDMGLKAFTNSKIRKPKMCPQLEAQEAGEGKEEEGLGSPVSQELGQRSELEGRGSPTEGEARGSKLRKYFPETWIWDLVVVNSAGVAEVGVTVPDTITEWKAGAFCLSEDAGLGISSTASLRAFQPFFVELTMPYSVIRGEAFTLKATVLNYLPKCIRVSVQLEASPAFLAVPVEKEQAPHCICANGRQTVSWAVTPKSLGNVNFTVSAEALESQELCGTEVPSVPEHGRKDTVIKPLLVEPEGLEKETTFNSLLCPSGGEVSEELSLKLPPNVVEESARASVSVLGDILGSAMQNTQNLLQMPYGCGEQNMVLFAPNIYVLDYLNETQQLTPEIKSKAIGYLNTGYQRQLNYKHYDGSYSTFGERYGRNQGNTWLTAFVLKTFAQARAYIFIDEAHITQALIWLSQRQKDNGCFRSSGSLLNNAIKGGVEDEVTLSAYITIALLEIPLTVTHPVVRNALFCLESAWKTAQEGDHGSHVYTKALLAYAFALAGNQDKRKEVLKSLNEEAVKKDNSVHWERPQKPKAPVGHFYEPQAPSAEVEMTSYVLLAYLTAQPAPTSEDLTSATNIVKWITKQQNAQGGFSSTQDTVVALHALSKYGAATFTRTGKAAQVTIQSSGTFSSKFQVDNNNRLLLQQVSLPELPGEYSMKVTGEGCVYLQTSLKYNILPEKEEFPFALGVQTLPQTCDEPKAHTSFQISLSVSYTGSRSASNMAIVDVKMVSGFIPLKPTVKMLERSNHVSRTEVSSNHVLIYLDKVSNQTLSLFFTVLQDVPVRDLKPAIVKVYDYYETDEFAIAEYNAPCSKDLGNADYKDDDDKGASHHHHHH

Source: US20230250154A1 (CYTONICS, published 2023)
